Test [1] deals with T1, mouse FcγRIII extracellular domain, C-terminal His tag (mouse, UniProt P08508 31-215).
T1 construct: Whole entry named; also called mFcγRIII; mFcgRIII
T1 chain: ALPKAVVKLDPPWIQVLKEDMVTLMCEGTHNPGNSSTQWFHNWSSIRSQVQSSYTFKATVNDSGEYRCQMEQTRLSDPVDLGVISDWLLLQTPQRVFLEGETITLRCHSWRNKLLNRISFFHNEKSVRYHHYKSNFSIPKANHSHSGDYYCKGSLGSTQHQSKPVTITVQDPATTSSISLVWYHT
Description: SPR (Biacore T200); KD of H237-mIgG1/MRAL-k0 / KD of variant.

Test [2] addresses T2, mouse FcγRII extracellular domain, C-terminal His tag (mouse, UniProt P08101 30-210).
T2 construct: Whole entry named; also called mFcγRII; mFcgRII
T2 sequence: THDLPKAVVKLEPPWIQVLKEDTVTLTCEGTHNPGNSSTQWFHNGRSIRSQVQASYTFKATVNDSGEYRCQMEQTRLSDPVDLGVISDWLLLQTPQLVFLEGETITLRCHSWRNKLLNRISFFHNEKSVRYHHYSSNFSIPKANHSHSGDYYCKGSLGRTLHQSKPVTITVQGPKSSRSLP
The description is as above.

B1: H237-MB596/MRAL-k0 (antibody, mouse IgG1, kappa)
heavy: QVQLQESGPGLVKPSETLSLTCAVSGHSISHDHAWSWVRQPPGEGLEWIGFISYSGITNYNPSLQGRVTISRDNSKNTLYLQMNSLRAEDTAVYYCARSLARTTAMDYWGEGTLVTVSSAKTTPPSVYPLAPGSAAQTNSMVTLGCLVKGYFPEPVTVTWNSGSLSSGVHTFPAVLQSDLYTLSSSVTVPSSTWPSETVTCNVAHPASSTKVDKKIVPRDCGCKPCICEVPEVEWVFIFPPKPKDVLTITLTPKVTCVVVDISKDDPEVQFSWFVDDVEVHTAQTQPREEQFNSTFRSVSELPIMHQDWLNGKEFKCRVNSAAFPAPIEKTISKTKGRPKAPQVYTIPPPKEQMAKDKVSLTCMITDFFPEDITVEWQWNGQPAENYKNTQPIMDTDGSYFVYSKLNVQKSNWEAGNTFTCSVLHEGLHNHHTEKSLSHSPGK
light: not shown
notes: copies: 2 + 2
For B1, in test [1], the “relative mFcγRIII-binding activity (mIgG1 = 1)” value came out at 0.17 fold. Moreover, the “relative mFcγRII-binding activity (mIgG1 = 1)” value in test [2] stood at 0.55 fold.

B2: H237-MB603/MRAL-k0 (antibody, mouse IgG1, kappa)
heavy: QVQLQESGPGLVKPSETLSLTCAVSGHSISHDHAWSWVRQPPGEGLEWIGFISYSGITNYNPSLQGRVTISRDNSKNTLYLQMNSLRAEDTAVYYCARSLARTTAMDYWGEGTLVTVSSAKTTPPSVYPLAPGSAAQTNSMVTLGCLVKGYFPEPVTVTWNSGSLSSGVHTFPAVLQSDLYTLSSSVTVPSSTWPSETVTCNVAHPASSTKVDKKIVPRDCGCKPCICEVPEVDFVFIFPPKPKDVLTITLTPKVTCVVVDISKDDPEVQFSWFVDDVEVHTAQTQPREEQFNSTFRSVSELPIMHQDWLNGKEFKCRVNSAAFPAPIEKTISKTKGRPKAPQVYTIPPPKEQMAKDKVSLTCMITDFFPEDITVEWQWNGQPAENYKNTQPIMDTDGSYFVYSKLNVQKSNWEAGNTFTCSVLHEGLHNHHTEKSLSHSPGK
light: not shown
notes: copies: 2 + 2
As to B2, the “relative mFcγRIII-binding activity (mIgG1 = 1)” value in test [1] stood at 0.06 fold. The “relative mFcγRII-binding activity (mIgG1 = 1)” value in test [2] stood at 0.12 fold.

B3: H237-MB600/MRAL-k0 (antibody, mouse IgG1, kappa)
heavy: QVQLQESGPGLVKPSETLSLTCAVSGHSISHDHAWSWVRQPPGEGLEWIGFISYSGITNYNPSLQGRVTISRDNSKNTLYLQMNSLRAEDTAVYYCARSLARTTAMDYWGEGTLVTVSSAKTTPPSVYPLAPGSAAQTNSMVTLGCLVKGYFPEPVTVTWNSGSLSSGVHTFPAVLQSDLYTLSSSVTVPSSTWPSETVTCNVAHPASSTKVDKKIVPRDCGCKPCICEVPEESWVFIFPPKPKDVLTITLTPKVTCVVVDISKDDPEVQFSWFVDDVEVHTAQTQPREEQFNSTFRSVSELPIMHQDWLNGKEFKCRVNSAAFPAPIEKTISKTKGRPKAPQVYTIPPPKEQMAKDKVSLTCMITDFFPEDITVEWQWNGQPAENYKNTQPIMDTDGSYFVYSKLNVQKSNWEAGNTFTCSVLHEGLHNHHTEKSLSHSPGK
light: not shown
notes: copies: 2 + 2
As to B3, the “relative mFcγRIII-binding activity (mIgG1 = 1)” value in test [1] stood at 0.25 fold. The “relative mFcγRII-binding activity (mIgG1 = 1)” value in test [2] came to 1.24 fold.

B4: H237-MB599/MRAL-k0 (antibody, mouse IgG1, kappa)
heavy: QVQLQESGPGLVKPSETLSLTCAVSGHSISHDHAWSWVRQPPGEGLEWIGFISYSGITNYNPSLQGRVTISRDNSKNTLYLQMNSLRAEDTAVYYCARSLARTTAMDYWGEGTLVTVSSAKTTPPSVYPLAPGSAAQTNSMVTLGCLVKGYFPEPVTVTWNSGSLSSGVHTFPAVLQSDLYTLSSSVTVPSSTWPSETVTCNVAHPASSTKVDKKIVPRDCGCKPCICEVPEESFVFIFPPKPKDVLTITLTPKVTCVVVDISKDDPEVQFSWFVDDVEVHTAQTQPREEQFNSTFRSVSELPIMHQDWLNGKEFKCRVNSAAFPAPIEKTISKTKGRPKAPQVYTIPPPKEQMAKDKVSLTCMITDFFPEDITVEWQWNGQPAENYKNTQPIMDTDGSYFVYSKLNVQKSNWEAGNTFTCSVLHEGLHNHHTEKSLSHSPGK
light: not shown
notes: copies: 2 + 2
With B4, the “relative mFcγRIII-binding activity (mIgG1 = 1)” value in test [1] turned out to be 0.11 fold. In test [2], the “relative mFcγRII-binding activity (mIgG1 = 1)” value amounted to 0.7 fold.

B5: H237-MB604/MRAL-k0 (antibody, mouse IgG1, kappa)
heavy: QVQLQESGPGLVKPSETLSLTCAVSGHSISHDHAWSWVRQPPGEGLEWIGFISYSGITNYNPSLQGRVTISRDNSKNTLYLQMNSLRAEDTAVYYCARSLARTTAMDYWGEGTLVTVSSAKTTPPSVYPLAPGSAAQTNSMVTLGCLVKGYFPEPVTVTWNSGSLSSGVHTFPAVLQSDLYTLSSSVTVPSSTWPSETVTCNVAHPASSTKVDKKIVPRDCGCKPCICEVPEVDWVFIFPPKPKDVLTITLTPKVTCVVVDISKDDPEVQFSWFVDDVEVHTAQTQPREEQFNSTFRSVSELPIMHQDWLNGKEFKCRVNSAAFPAPIEKTISKTKGRPKAPQVYTIPPPKEQMAKDKVSLTCMITDFFPEDITVEWQWNGQPAENYKNTQPIMDTDGSYFVYSKLNVQKSNWEAGNTFTCSVLHEGLHNHHTEKSLSHSPGK
light: not shown
notes: copies: 2 + 2
As to B5, the “relative mFcγRIII-binding activity (mIgG1 = 1)” value in test [1] stood at 0.16 fold. Moreover, the “relative mFcγRII-binding activity (mIgG1 = 1)” value in test [2] amounted to 0.34 fold.

B6: H237-MB601/MRAL-k0 (antibody, mouse IgG1, kappa)
heavy: QVQLQESGPGLVKPSETLSLTCAVSGHSISHDHAWSWVRQPPGEGLEWIGFISYSGITNYNPSLQGRVTISRDNSKNTLYLQMNSLRAEDTAVYYCARSLARTTAMDYWGEGTLVTVSSAKTTPPSVYPLAPGSAAQTNSMVTLGCLVKGYFPEPVTVTWNSGSLSSGVHTFPAVLQSDLYTLSSSVTVPSSTWPSETVTCNVAHPASSTKVDKKIVPRDCGCKPCICEVPEESSVDIFPPKPKDVLTITLTPKVTCVVVDISKDDPEVQFSWFVDDVEVHTAQTQPREEQFNSTFRSVSELPIMHQDWLNGKEFKCRVNSAAFPAPIEKTISKTKGRPKAPQVYTIPPPKEQMAKDKVSLTCMITDFFPEDITVEWQWNGQPAENYKNTQPIMDTDGSYFVYSKLNVQKSNWEAGNTFTCSVLHEGLHNHHTEKSLSHSPGK
light: not shown
notes: copies: 2 + 2
As to B6, in test [1], the “relative mFcγRIII-binding activity (mIgG1 = 1)” value was determined as 0.1 fold. Also, the “relative mFcγRII-binding activity (mIgG1 = 1)” value in test [2] amounted to 0.55 fold.

B7: H237-MB597/MRAL-k0 (antibody, mouse IgG1, kappa)
heavy: QVQLQESGPGLVKPSETLSLTCAVSGHSISHDHAWSWVRQPPGEGLEWIGFISYSGITNYNPSLQGRVTISRDNSKNTLYLQMNSLRAEDTAVYYCARSLARTTAMDYWGEGTLVTVSSAKTTPPSVYPLAPGSAAQTNSMVTLGCLVKGYFPEPVTVTWNSGSLSSGVHTFPAVLQSDLYTLSSSVTVPSSTWPSETVTCNVAHPASSTKVDKKIVPRDCGCKPCICEVPEVESVDIFPPKPKDVLTITLTPKVTCVVVDISKDDPEVQFSWFVDDVEVHTAQTQPREEQFNSTFRSVSELPIMHQDWLNGKEFKCRVNSAAFPAPIEKTISKTKGRPKAPQVYTIPPPKEQMAKDKVSLTCMITDFFPEDITVEWQWNGQPAENYKNTQPIMDTDGSYFVYSKLNVQKSNWEAGNTFTCSVLHEGLHNHHTEKSLSHSPGK
light: not shown
notes: copies: 2 + 2
As to B7, in test [1], the “relative mFcγRIII-binding activity (mIgG1 = 1)” value was 0.54 fold. The “relative mFcγRII-binding activity (mIgG1 = 1)” value in test [2] turned out to be 1.28 fold.

B8: H237-MB602/MRAL-k0 (antibody, mouse IgG1, kappa)
heavy: QVQLQESGPGLVKPSETLSLTCAVSGHSISHDHAWSWVRQPPGEGLEWIGFISYSGITNYNPSLQGRVTISRDNSKNTLYLQMNSLRAEDTAVYYCARSLARTTAMDYWGEGTLVTVSSAKTTPPSVYPLAPGSAAQTNSMVTLGCLVKGYFPEPVTVTWNSGSLSSGVHTFPAVLQSDLYTLSSSVTVPSSTWPSETVTCNVAHPASSTKVDKKIVPRDCGCKPCICEVPEEDSVFIFPPKPKDVLTITLTPKVTCVVVDISKDDPEVQFSWFVDDVEVHTAQTQPREEQFNSTFRSVSELPIMHQDWLNGKEFKCRVNSAAFPAPIEKTISKTKGRPKAPQVYTIPPPKEQMAKDKVSLTCMITDFFPEDITVEWQWNGQPAENYKNTQPIMDTDGSYFVYSKLNVQKSNWEAGNTFTCSVLHEGLHNHHTEKSLSHSPGK
light: not shown
notes: copies: 2 + 2
Regarding B8, the “relative mFcγRIII-binding activity (mIgG1 = 1)” value in test [1] is 0.05 fold. For the same molecule, the “relative mFcγRII-binding activity (mIgG1 = 1)” value in test [2] came to 0.26 fold.

B9: H237-MB598/MRAL-k0 (antibody, mouse IgG1, kappa)
heavy: QVQLQESGPGLVKPSETLSLTCAVSGHSISHDHAWSWVRQPPGEGLEWIGFISYSGITNYNPSLQGRVTISRDNSKNTLYLQMNSLRAEDTAVYYCARSLARTTAMDYWGEGTLVTVSSAKTTPPSVYPLAPGSAAQTNSMVTLGCLVKGYFPEPVTVTWNSGSLSSGVHTFPAVLQSDLYTLSSSVTVPSSTWPSETVTCNVAHPASSTKVDKKIVPRDCGCKPCICEVPEVESVFIFPPKPKDVLTITLTPKVTCVVVDIMKDDPEVQFSWFVDDVEVHTAQTQPREEQFNSTFRSVSELPIMHQDWLNGKEFKCRVNSAAFPAPIEKTISKTKGRPKAPQVYTIPPPKEQMAKDKVSLTCMITDFFPEDITVEWQWNGQPAENYKNTQPIMDTDGSYFVYSKLNVQKSNWEAGNTFTCSVLHEGLHNHHTEKSLSHSPGK
light: not shown
notes: copies: 2 + 2
On to B9, for which, in test [1], the “relative mFcγRIII-binding activity (mIgG1 = 1)” value worked out at 0.08 fold. For the same molecule, in test [2], the “relative mFcγRII-binding activity (mIgG1 = 1)” value stood at 0.41 fold.

B10: H237-MB605/MRAL-k0 (antibody, mouse IgG1, kappa)
heavy: QVQLQESGPGLVKPSETLSLTCAVSGHSISHDHAWSWVRQPPGEGLEWIGFISYSGITNYNPSLQGRVTISRDNSKNTLYLQMNSLRAEDTAVYYCARSLARTTAMDYWGEGTLVTVSSAKTTPPSVYPLAPGSAAQTNSMVTLGCLVKGYFPEPVTVTWNSGSLSSGVHTFPAVLQSDLYTLSSSVTVPSSTWPSETVTCNVAHPASSTKVDKKIVPRDCGCKPCICEVPEVDSVDIFPPKPKDVLTITLTPKVTCVVVDISKDDPEVQFSWFVDDVEVHTAQTQPREEQFNSTFRSVSELPIMHQDWLNGKEFKCRVNSAAFPAPIEKTISKTKGRPKAPQVYTIPPPKEQMAKDKVSLTCMITDFFPEDITVEWQWNGQPAENYKNTQPIMDTDGSYFVYSKLNVQKSNWEAGNTFTCSVLHEGLHNHHTEKSLSHSPGK
light: not shown
notes: copies: 2 + 2
For B10, the “relative mFcγRIII-binding activity (mIgG1 = 1)” value in test [1] amounted to 4.4 fold. Also, in test [2], the “relative mFcγRII-binding activity (mIgG1 = 1)” value was 9.85 fold.

For the origin of these results see patent US20150203577A1 (Chugai, published 2015).
